We go through two molecules from article PMC6960285, “Unique Microbial Catabolic Pathway for the Human Core N-Glycan Constituent Fucosyl-α-1,6-N-Acetylglucosamine-Asparagine” (mBio, 2020).

Test [1] deals with His-tagged AsnA2, N(4)-(β-N-acetylglucosaminyl)-L-asparaginase (glycosylasparaginase) of Lactobacillus casei BL23 (Lactobacillus casei BL23). Kind of test: SEC; size exclusion chromatography of purified His-tagged AsnA2 on a HiPrep 16/60 Sephacryl S-300 HR column, calibrated with five standard proteins; native molecular weight estimated.
The target of the next test is T1, AlfC (Lacticaseibacillus paracasei, UniProt A0A422MHI3).
T1 construct: gene BN194_28780; 6xHis-AlfC from E. coli DH10B with pQEalfC, purified as earlier published
T1 sequence (A0A422MHI3 1-344): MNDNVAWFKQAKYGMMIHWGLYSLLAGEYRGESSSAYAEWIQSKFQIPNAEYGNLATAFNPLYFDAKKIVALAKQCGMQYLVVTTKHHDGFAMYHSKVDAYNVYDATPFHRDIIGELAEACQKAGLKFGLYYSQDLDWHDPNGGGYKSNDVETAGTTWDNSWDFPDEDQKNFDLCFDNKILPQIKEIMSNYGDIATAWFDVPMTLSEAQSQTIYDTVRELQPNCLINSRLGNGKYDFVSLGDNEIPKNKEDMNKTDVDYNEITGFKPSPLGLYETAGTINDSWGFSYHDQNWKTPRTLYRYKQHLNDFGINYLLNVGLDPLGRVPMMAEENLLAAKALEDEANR
In words: transfucosylation, product by HPLC and NMR. The test is classed as biochemical. The settings on record: acceptor, 100 mM; donor 50 mM pNP-fuc; 100 mM Tris-HCl pH 7.0, 42°C.

As a reminder, the stoichiometry N is the number of molecules, sites or subunits per partner or assembly. In the case of “His-tagged AsnA2, N(4)-(β-N-acetylglucosaminyl)-L-asparaginase (glycosylasparaginase) of Lactobacillus casei BL23 (enzyme)”, the stoichiometry N in test [1] was 2.
As to `CC(=O)N[C@@H]1[C@@H](O)[C@H](O)[C@@H](CO)O[C@H]1NC(=O)C[C@H](N)C(=O)O` [GlcNAc-Asn], at AlfC, the “transfucosylation, product by HPLC and NMR” value is recorded as “the ability of AlfC to use GlcNAc-Asn as the acceptor was tested”.
